# Reference: article PMC3841738 (Genes & Development, 2013)
# Target: the molecule itself
# Test: SAXS
protein,measurement,value
NtrC1 ATPase domain (Aquifex aeolicus) (domain or fragment) LRKENELLRREKDLKEEEYVFESPKMKEILEKIKKISCAECPVLITGESGVGKEVVARLIHKLSDRSKEPFVALNVASIPRDIFEAELFGYEKGAFTGAVSSKEGFFELADGGTLFLDEIGELSLEAQAKLLRVIESGKFYRLGGRKEIEVNVRILAATNRNIKELVKEGKFREDLYYRLGVIEIEIPPLRERKEDIIPLANHFLKKFSRKYAKEVEGFTKSAQELLLSYPWYGNVRELKNVIERAVLFSEGKFIDRGELSCLVNSK,stoichiometry N,7
